Experimental findings from patent US20250270315A1 (ELPISCIENCE SUZHOU BIOPHARMA, published 2025) are described below.

The target in experiment [1] is T1, human SIRPβ ECD recombinant protein (6×His tagged) (human, UniProt O00241 30-371).
T1 construct: extracellular domain; Bought from Sino Biological; also called hSIRPβ ECD; not shown: 6×His tag
The experiment in a line: ELISA, hSIRPβ ECD. The source says:
(§1) Binding activity of the purified chimeric antibodies against SIRPβ and SIRPBI was detected by ELISA assay using recombinant proteins of human SIRPβ ECD (FIGS. 3A and 3B), human SIRPBI ECD (FIGS. 3D and 3E) and FACS assay using CHOK 1 cells stably expressing human SIRPB (FIG. 3C).
(An ELISA detects its analyte on a solid surface through an enzyme-linked reagent.)

In experiment [2] the target is T2, human SIRPγ stably expressed on 293F cells (human, UniProt Q9P1W8 29-387).
T2 construct: whole, on cells
T2 sequence (Q9P1W8 29-387): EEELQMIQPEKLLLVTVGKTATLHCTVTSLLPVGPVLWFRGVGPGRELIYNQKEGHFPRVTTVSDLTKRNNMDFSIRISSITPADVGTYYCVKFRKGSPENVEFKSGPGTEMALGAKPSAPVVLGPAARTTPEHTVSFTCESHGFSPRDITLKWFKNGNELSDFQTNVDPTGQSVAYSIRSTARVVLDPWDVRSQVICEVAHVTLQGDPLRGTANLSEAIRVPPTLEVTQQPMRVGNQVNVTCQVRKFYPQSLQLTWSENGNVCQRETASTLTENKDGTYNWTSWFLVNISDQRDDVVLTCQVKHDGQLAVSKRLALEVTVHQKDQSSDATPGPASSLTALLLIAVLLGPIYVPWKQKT
The experiment can be described thus: FACS, 293F-human SIRPγ cells.

The target of experiment [3] is T3, Human SIRPα v1 (antigen of the Octet and Biacore affinity measurements) (human, UniProt P78324 31-370, limits assumed). The experiment can be described thus: BLI (Octet), 1:1 binding model. The method, then: The purified chimeric antibodies were characterized for binding affinity against human SIRPα v1, human SIRPα v2 using Bio-Layer Interferometry technology (Octet system). The association and dissociation curves were fit with 1:1 binding model, and the Ka/Kd/KD values for each antibody were calculated.
T3 sequence (P78324 31-370 limits assumed): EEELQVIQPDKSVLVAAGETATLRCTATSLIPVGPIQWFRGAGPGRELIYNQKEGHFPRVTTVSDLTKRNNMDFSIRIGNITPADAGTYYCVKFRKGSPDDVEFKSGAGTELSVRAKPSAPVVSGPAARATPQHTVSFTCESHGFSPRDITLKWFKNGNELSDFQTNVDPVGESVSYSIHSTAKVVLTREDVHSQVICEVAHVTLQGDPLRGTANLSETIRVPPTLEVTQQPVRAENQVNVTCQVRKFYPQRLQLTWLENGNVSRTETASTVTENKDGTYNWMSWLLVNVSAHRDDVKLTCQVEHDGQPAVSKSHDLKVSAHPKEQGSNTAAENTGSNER

Experiment [4] has as its target T3, Human SIRPα v1 (antigen of the Octet …). The experiment can be described thus: SPR (Biacore), 1:1 binding model. The method, then:
The humanized antibodies were characterized for binding affinity against human SIRPα v1, human SIRPα v2 using Surface Plasmon Resonance technology (Biacore system). The association and dissociation curves were fit with 1:1 binding model, and the Ka/Kd/KD values for each antibody were calculated.
For orientation: SPR reads the build-up and loss of mass on a sensor chip optically.

The target in experiment [5] is T1, human SIRPβ ECD recombinant protein …. The experiment in a line: ELISA, recombinant human SIRPβ ECD.
Source text: as §1

Experiment [6] has as its target T4, human SIRPβ stably expressed on CHOK1 cells (human, UniProt O00241 30-398).
T4 construct: whole, on cells; also called CHOK1-human SIRPB; CHOK1-hSIRPβ
The experiment in a line: FACS, CHOK1 cells stably expressing human SIRPβ. An excerpt:
(§2) All the humanized antibodies as tested were confirmed to retain the similar activity as the parental antibody of 025c to bind to SIRP family members.

The target of experiment [7] is T4, human SIRPβ stably expressed on CHOK1 …. The experiment can be described thus: FACS, CHOK1-hSIRPβ cells (columns c6 and c7 read as swapped).
Source text: as §2

Experiment [8] deals with T5, full length human SIRPα v1 stably expressed on CHOK1 or 293F cells (human, UniProt P78324 31-504).
T5 construct: whole, on cells; also called CHOK1-human SIRPα v1; CHOK1-hSIRPα v1
T5 sequence (P78324 31-504): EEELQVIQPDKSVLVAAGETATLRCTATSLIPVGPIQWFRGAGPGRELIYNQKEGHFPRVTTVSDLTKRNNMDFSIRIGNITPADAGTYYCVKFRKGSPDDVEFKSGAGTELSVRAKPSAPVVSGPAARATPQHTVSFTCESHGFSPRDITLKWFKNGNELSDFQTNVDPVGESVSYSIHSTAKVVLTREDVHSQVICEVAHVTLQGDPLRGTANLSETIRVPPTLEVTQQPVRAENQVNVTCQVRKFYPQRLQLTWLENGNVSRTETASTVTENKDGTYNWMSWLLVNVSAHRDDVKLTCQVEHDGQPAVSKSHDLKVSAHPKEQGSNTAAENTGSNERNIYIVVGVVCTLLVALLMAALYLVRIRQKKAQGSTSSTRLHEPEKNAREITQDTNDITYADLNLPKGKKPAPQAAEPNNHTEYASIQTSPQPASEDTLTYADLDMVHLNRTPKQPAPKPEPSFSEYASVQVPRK
The experiment in a line: competitive FACS, mFc-CD47 ECD on CHOK1-human SIRPα v1 cells. In a few lines:
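Antibody co-incubated with mFc-tagged human CD47 ECD on CHOK1 cells stably expressing human SIRPα v1 or v2; dye-labeled anti-mouse Fc secondary added, 37 °C for 1 h. Fluorescence intensity read; blocking ratio derived from inhibition of CD47 ECD binding to SIRPα-expressing cells.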

Experiment [9] concerns the target T6, mFc tagged human SIRPα v1 ECD recombinant protein (human, UniProt P78324 31-373).
T6 construct: extracellular domain; Bought from Biointron; not shown: mouse IgG Fc (mFc) tag
The experiment can be described thus: competitive ELISA binning, mFc-SIRPα v1 ECD; competitor 025c. Here is the method: (§3) Competitive ELISA assay was used for epitope binning of purified chimeric antibodies. Briefly excessive competitor antibody and mFc tagged human SIRPα v1 ECD recombinant protein were co-incubated with ELISA microplate coated antibody. After washing, HRP labeled anti-mouse Fc 2nd antibody (Sigma) was added and incubated at 37° C. for 1 hour. Then, 100 μl/well of TMB solution (Biotechnology) was added. After incubation for 15 minutes at room temperature, the reaction was stopped by the addition of 50 μl of 1N HCl. OD 450 nm was read. Competition ratio was calculated. The antibodies that can compete each other for binding to SIRPα may have related binding epitopes.

Experiment [10] concerns the target T6, mFc tagged human SIRPα v1 ECD …. The experiment in a line: competitive ELISA binning, mFc-SIRPα v1 ECD; competitor hu1H9G4. The method, then: as §3
Experiment [11] deals with T7, human SIRPα v1 ECD recombinant protein (tag not given) (human, UniProt P78324 31-373).
T7 construct: extracellular domain; also called biotin labeled soluble human SIRPα v1 ECD recombinant protein; ELISA microplate coated human SIRPα v1 ECD
T7 sequence (P78324 31-373): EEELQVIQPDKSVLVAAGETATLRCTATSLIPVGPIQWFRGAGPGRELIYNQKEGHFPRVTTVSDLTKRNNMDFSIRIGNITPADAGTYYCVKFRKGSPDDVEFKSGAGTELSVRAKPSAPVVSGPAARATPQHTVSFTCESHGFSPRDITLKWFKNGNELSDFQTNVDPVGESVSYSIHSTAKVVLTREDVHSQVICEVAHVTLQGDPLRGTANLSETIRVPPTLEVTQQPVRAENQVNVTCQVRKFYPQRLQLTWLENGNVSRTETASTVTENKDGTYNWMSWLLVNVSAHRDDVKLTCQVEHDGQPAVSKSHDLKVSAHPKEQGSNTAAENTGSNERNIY
The experiment in a line: competitive ELISA, coated human SIRPα v1 ECD, blocked ligand mFc tagged human CD47 ECD. The method, then: Competitive ELISA assay was used to determine whether the purified chimeric antibodies can block CD47 and SIRPα interaction. Briefly, antibody and mFc tagged human CD47 ECD recombinant protein were co-incubated with ELISA microplate coated human SIRPα v1 ECD (FIGS. 6A and 6B) or human SIRPα v2 ECD (FIGS. 7A and 7B) recombinant protein. After washing, HRP labeled anti-mouse Fc 2nd antibody (Sigma) was added and incubated at 37° C. for 1 hour. Then, 100 μl/well of TMB solution (Biotechnology) was added. After incubation for 15 minutes at room temperature, the reaction was stopped by the addition of 50 μl of 1N HCl. OD 450 nm was read. Blocking ratio was determined by blockade of human CD47 ECD recombinant protein binding to ELISA microplate coated human SIRPα ECD recombinant protein. Other than 005, all antibodies as tested can block interaction between human CD47 and different human SIRPα variants.

T4 sequence (O00241 30-398): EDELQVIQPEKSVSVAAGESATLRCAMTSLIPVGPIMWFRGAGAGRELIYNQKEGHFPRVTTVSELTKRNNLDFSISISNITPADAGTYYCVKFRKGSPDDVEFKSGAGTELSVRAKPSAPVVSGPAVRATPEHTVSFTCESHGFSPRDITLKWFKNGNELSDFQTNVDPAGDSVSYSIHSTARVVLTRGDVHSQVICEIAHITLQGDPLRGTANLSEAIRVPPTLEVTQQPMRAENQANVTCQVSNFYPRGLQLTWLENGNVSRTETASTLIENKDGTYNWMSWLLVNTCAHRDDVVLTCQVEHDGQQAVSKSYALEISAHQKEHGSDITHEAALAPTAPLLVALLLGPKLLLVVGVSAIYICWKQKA
T1 sequence (O00241 30-371): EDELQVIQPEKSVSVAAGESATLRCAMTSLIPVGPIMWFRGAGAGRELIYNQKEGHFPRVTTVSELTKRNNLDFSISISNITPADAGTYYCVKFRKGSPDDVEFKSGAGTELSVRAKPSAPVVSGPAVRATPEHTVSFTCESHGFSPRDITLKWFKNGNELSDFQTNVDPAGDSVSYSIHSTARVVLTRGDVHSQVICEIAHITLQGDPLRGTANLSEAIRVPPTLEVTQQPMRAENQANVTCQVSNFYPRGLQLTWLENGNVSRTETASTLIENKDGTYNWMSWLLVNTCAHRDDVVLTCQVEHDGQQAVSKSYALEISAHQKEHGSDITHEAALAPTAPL
T6 sequence (P78324 31-373): as the sequence (P78324 31-373) above

B1: 025c (antibody, V domains shown)
VH: EVQLQQSGAELVKPGASVKLSCTASGFNIKDYYMHWVKQRTEQGLEWIGRIDPEDGETKYAPKFQGKATITADTSSNTAYLQLSSLTSEDTAVYYCDRGLAYWGQGTLVTVSA
VL: QIVLTQSPAIMSASPGEKVTLTCSASSSVSSSYLYWYQQKPGSSPKLWIYSTSNLASGVPARFSGSGSGTSYSLTISSMEAEDAASYFCHQWSSYPYTFGGGTKLEIK
notes: also called chimeric antibody 025c; parental antibody of 025c
In general, EC50 refers to the midpoint of the concentration-response curve. Usually Kd stands for the concentration at which binding is half-saturated. Read a high Kd as weaker binding. A word on the koff: it is the first-order rate constant of dissociation. High values mean a short-lived complex, low ones a long-lived complex. For orientation: kon means the rate constant with which the complex forms. The low end stands for slow association, the high end for fast association. By EC50 (read off the curve) is commonly meant the concentration at which the effect is half-maximal. For orientation: IC50 means the midpoint of a concentration-inhibition curve. A low value points to greater potency. On to B1, for which the values for the concentration giving a half-maximal response (EC50) in experiment [1], in experiment [2] and in experiment [7] were 0.04 nM, 0.11 nM and 0.65 nM, respectively. Moreover, the “TOP OD450” value in experiment [1] was determined as 3.1 OD450. The “TOP MFI” value in experiment [2] turned out to be 3220 MFI; in experiment [7], 72300 MFI. For the same molecule, the results for the Kd in experiment [3] and in experiment [4] were 2.46 nM and 1.53 nM, respectively. Further, the koff amounted to 0.00156 s⁻¹ in experiment [3] and 0.000924 s⁻¹ in [4]. The on-rate (kon) in experiment [3] came out at 636000 M⁻¹ s⁻¹; in [4] it was 602000 M⁻¹ s⁻¹. For the same molecule, the “EC50 (read off the curve)” value in [5] was approximately 0.04 nM; in experiment [6] it was approximately 0.7 nM. This molecule also yielded an IC50 in [8] of 0.4 nM. Moreover, in [8], the “TOP blocking (%)” value worked out at 97.6%. The “% Competition” value turned out to be 93.5% in experiment [9] and 15.3% in [10]. Also, the “IC50 (read off the curve)” value in experiment [11] was in the range of 2 to 3 nM.
